Source: the supplement of paper PMC11780869

Test system: Bacillus subtilis
Test: cleaved RNA product abundance (RNA/gDNA barcode ratio) relative to median wild-type variant (ratio to wild type); higher = more accumulation of the downstream cleavage product
Conditions: experiment (reporter, strain, medium): exp 8a: truncated aprE reporter, strain BJT201 with 2% xylose (RNase J1 expressed); cleavage site: glnRA (positions -5 to +31 mutated)
Method in brief: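 Oligos with a 9% error rate were used to build barcoded, mutagenized RNase Y cleavage-site windows within truncated aprE or tetM reporter mRNAs, which were integrated into the B. subtilis chromosome. Cultures were grown in LB at 37°C between OD600 0.0003 and 0.3. Cleaved RNA was gel-selected, reverse transcribed and barcode-sequenced, as were genomic DNA barcodes, and UMIs were collapsed. Cleaved product abundance is the scaled RNA:gDNA barcode ratio, with the median construct carrying the unmutated site as reference.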

Row | Sequence | cleaved RNA product abundance
1 | CGACATGTCCCGCTTCTTTCATTAATCCGTTAGCAACTGTTTTGCTATATACTTATACCTTTTAAGAGGAGGAAT | 0.926
2 | CGACATGTCCCGCTTCTTTCATTAATCCGTTAGCAACTGTTTTGCTATATACTTTTACCATTTAAGAGGAGGAAT | 0.769
3 | CGACATGTCCCGCTTCTTTCATTAATCCGTTAGCAACTGTTTTGCTATATACTTTTACCTTTTAAGAGGAGGAAT | 0.641
4 | CGACATGTCCCGCTTCTTTCATTAATCCGTTAGCAACTGTTTTGCTATATAGAATTACCTTTTAAGAGGAGGAAT | 1.14
5 | CGACATGTCCCGCTTCTTTCATTAATCCGTTAGCAACTGTTTTGCTATATAGATTTACCCTTTAAGAGGAGGAAT | 0.684
6 | CGACATGTCCCGCTTCTTTCATTAATCCGTTAGCAACTGTTTTGCTATATAGATTTACCTTTTAAGAGGAGGAAT | 1.11
7 | CGACATGTCCCGCTTCTTTCATTAATCCGTTAGCAACTGTTTTGCTATATATAATTACCTTTTAAGAGGAGGAAT | 0.919
8 | CGACATGTCCCGCTTCTTTCATTAATCCGTTAGCAACTGTTTTGCTATATATATATACCTTTTAAGAGGAGGAAT | 1.12
9 | CGACATGTCCCGCTTCTTTCATTAATCCGTTAGCAACTGTTTTGCTATATATATTTACCCTTTAAGAGGAGGAAT | 0.959
10 | CGACATGTCCCGCTTCTTTCATTAATCCGTTAGCAACTGTTTTGCTATATATATTTACCTTTTAAGAGGAGGAAT | 1.03
11 | CGACATGTCCCGCTTCTTTCATTAATCCGTTAGCAACTGTTTTGCTATATATATTTACTTTTTAAGAGGAGGAAT | 1.89
12 | CGACATGTCCCGCTTCTTTCATTAATCCGTTAGCAACTGTTTTGCTATATATATTTATCTTTTAAGAGGAGGAAT | 1.3
13 | CGACATGTCCCGCTTCTTTCATTAATCCGTTAGCAACTGTTTTGCTATATCCATTGACCTTTTAAGAGGAGGAAT | 0.461
14 | CGACATGTCCCGCTTCTTTCATTAATCCGTTAGCAACTGTTTTGCTATATCCATTTACCTTTTAAGAGGAGGAAT | 0.167
15 | CGACATGTCCCGCTTCTTTCATTAATCCGTTAGCAACTGTTTTGCTATATGCAATTACCTTTTAAGAGGAGGAAT | 0.289
16 | CGACATGTCCCGCTTCTTTCATTAATCCGTTAGCAACTGTTTTGCTATATGCATTTAACTTTTAAGAGGAGGAAT | 0.452
17 | CGACATGTCCCGCTTCTTTCATTAATCCGTTAGCAACTGTTTTGCTATATGCATTTACCTTTTAAGAGGAGGAAT | 0.239
18 | CGACATGTCCCGCTTCTTTCATTAATCCGTTAGCAACTGTTTTGCTATATGTATTTACCTTTTAAGAGGAGGAAT | 0.45
19 | CGACATGTCCCGCTTCTTTCATTAATCCGTTAGCAACTGTTTTGCTATATTAATTTACCTTTTAAGAGGAGGAAT | 0.236
20 | CGACATGTCCCGCTTCTTTCATTAATCCGTTAGCAACTGTTTTGCTATATTACATTTACCTTTTAAGAGGAGGAA | 0.443
21 | CGACATGTCCCGCTTCTTTCATTAATCCGTTAGCAACTGTTTTGCTATATTCATATACCTTTTAAGAGGAGGAAT | 0.449
22 | CGACATGTCCCGCTTCTTTCATTAATCCGTTAGCAACTGTTTTGCTATATTCATTTACCTTTTAAGAGGAGGAAT | 0.233

Row | Sequence | cleaved RNA product abundance
23 | CGACATGTCCCGCTTCTTTCATTAATCCGTTAGCAACTGTTTTGCTATATTGATTTACCTTTTAAGAGGAGGAAT | 0.263
24 | CGACATGTCCCGCTTCTTTCATTAATCCGTTAGCAACTGTTTTGCTATATTTATTTACCTTTTAAGAGGAGGAAT | 0.495
25 | CGACATGTCCCGCTTCTTTCATTAATCCGTTAGCAACTGTTTTGCTATCTAAATTTACCTTTTAAGAGGAGGAAT | 0.123
26 | CGACATGTCCCGCTTCTTTCATTAATCCGTTAGCAACTGTTTTGCTATCTACAGTTACCTTTTAAGAGGAGGAAT | 0.0519
27 | CGACATGTCCCGCTTCTTTCATTAATCCGTTAGCAACTGTTTTGCTATCTACATTTACCTTTTAAGAGGAGGAAT | 0.098
28 | CGACATGTCCCGCTTCTTTCATTAATCCGTTAGCAACTGTTTTGCTATGTACATTTACCTTTTAAGAGGAGGAAT | 0.215
29 | CGACATGTCCCGCTTCTTTCATTAATCCGTTAGCAACTGTTTTGCTATTTAAATTTACCTTTTAAGAGGAGGAAT | 0.144
30 | CGACATGTCCCGCTTCTTTCATTAATCCGTTAGCAACTGTTTTGCTATTTACACTTACCTTTTAAGAGGAGGAAT | 0.12
31 | CGACATGTCCCGCTTCTTTCATTAATCCGTTAGCAACTGTTTTGCTATTTACATATACCTTTTAAGAGGAGGAAT | 0.317
32 | CGACATGTCCCGCTTCTTTCATTAATCCGTTAGCAACTGTTTTGCTATTTACATCTACCTTTTAAGAGGAGGAAT | 0.276
33 | CGACATGTCCCGCTTCTTTCATTAATCCGTTAGCAACTGTTTTGCTATTTACATGTACCTTTTAAGAGGAGGAAT | 0.0435
34 | CGACATGTCCCGCTTCTTTCATTAATCCGTTAGCAACTGTTTTGCTATTTACATTTAACTTTTAAGAGGAGGAAT | 0.208
35 | CGACATGTCCCGCTTCTTTCATTAATCCGTTAGCAACTGTTTTGCTATTTACATTTACCTTTTAAGAGGAGGAAT | 0.16
36 | CGACATGTCCCGCTTCTTTCATTAATCCGTTAGCAACTGTTTTGCTCTATAAATTTACCTTTTAAGAGGAGGAAT | 0.384
37 | CGACATGTCCCGCTTCTTTCATTAATCCGTTAGCAACTGTTTTGCTCTATACATATACCTTTTAAGAGGAGGAAT | 0.176
38 | CGACATGTCCCGCTTCTTTCATTAATCCGTTAGCAACTGTTTTGCTCTATACATTTACCTTTTAAGAGGAGGAAT | 0.265
39 | CGACATGTCCCGCTTCTTTCATTAATCCGTTAGCAACTGTTTTGCTGTATAAATTTACCTTTTAAGAGGAGGAAT | 0.199
40 | CGACATGTCCCGCTTCTTTCATTAATCCGTTAGCAACTGTTTTGCTGTATACATTTACCTTTTAAGAGGAGGAAT | 0.219
41 | CGACATGTCCCGCTTCTTTCATTAATCCGTTAGCAACTGTTTTGCTTTATAAATTTACCTTTTAAGAGGAGGAAT | 0.385
42 | CGACATGTCCCGCTTCTTTCATTAATCCGTTAGCAACTGTTTTGCTTTATACATATACCTTTTAAGAGGAGGAAT | 0.406
43 | CGACATGTCCCGCTTCTTTCATTAATCCGTTAGCAACTGTTTTGCTTTATACATTTAACTTTTAAGAGGAGGAAT | 0.346
44 | CGACATGTCCCGCTTCTTTCATTAATCCGTTAGCAACTGTTTTGCTTTATACATTTACCCTTTAAGAGGAGGAAT | 0.206

Row | Sequence | cleaved RNA product abundance
45 | CGACATGTCCCGCTTCTTTCATTAATCCGTTAGCAACTGTTTTGCTTTATACATTTACCTTTTAAGAGGAGGAAT | 0.338
46 | CGACATGTCCCGCTTCTTTCATTAATCCGTTAGCAACTGTTTTGCTTTATAGATTTACCTTTTAAGAGGAGGAAT | 0.649
47 | CGACATGTCCCGCTTCTTTCATTAATCCGTTAGCAACTGTTTTGGTACATACATTTACCTTTTAAGAGGAGGAAT | 0.119
48 | CGACATGTCCCGCTTCTTTCATTAATCCGTTAGCAACTGTTTTGGTAGATACATTTACCTTTTAAGAGGAGGAAT | 0.115
49 | CGACATGTCCCGCTTCTTTCATTAATCCGTTAGCAACTGTTTTGGTATATACATTTACATTTTAAGAGGAGGAAT | 0.529
50 | CGACATGTCCCGCTTCTTTCATTAATCCGTTAGCAACTGTTTTGGTATATACATTTACCTTTTAAGAGGAGGAAT | 0.237
51 | CGACATGTCCCGCTTCTTTCATTAATCCGTTAGCAACTGTTTTGGTATATATATTTACCTTTTAAGAGGAGGAAT | 0.224
52 | CGACATGTCCCGCTTCTTTCATTAATCCGTTAGCAACTGTTTTGTGATATACATTTACCTTTTAAGAGGAGGAAT | 0.344
53 | CGACATGTCCCGCTTCTTTCATTAATCCGTTAGCAACTGTTTTGTTAAATACATTTACCTTTTAAGAGGAGGAAT | 0.414
54 | CGACATGTCCCGCTTCTTTCATTAATCCGTTAGCAACTGTTTTGTTATAAACATTTACCTTTTAAGAGGAGGAAT | 0.322
55 | CGACATGTCCCGCTTCTTTCATTAATCCGTTAGCAACTGTTTTGTTATAGACATTTACCTTTTAAGAGGAGGAAT | 0.265
56 | CGACATGTCCCGCTTCTTTCATTAATCCGTTAGCAACTGTTTTGTTATATACAGTTACCTTTTAAGAGGAGGAAT | 0.162
57 | CGACATGTCCCGCTTCTTTCATTAATCCGTTAGCAACTGTTTTGTTATATACATATACCTTTTAAGAGGAGGAAT | 0.573
58 | CGACATGTCCCGCTTCTTTCATTAATCCGTTAGCAACTGTTTTGTTATATACATTGACCTTTTAAGAGGAGGAAT | 2.01
59 | CGACATGTCCCGCTTCTTTCATTAATCCGTTAGCAACTGTTTTGTTATATACATTTAACTTTTAAGAGGAGGAAT | 0.617
60 | CGACATGTCCCGCTTCTTTCATTAATCCGTTAGCAACTGTTTTGTTATATACATTTACCCTTTAAGAGGAGGAAT | 0.388
61 | CGACATGTCCCGCTTCTTTCATTAATCCGTTAGCAACTGTTTTGTTATATACATTTACCTTTTAAGAGGAGGAAT | 0.453
62 | CGACATGTCCCGCTTCTTTCATTAATCCGTTAGCAACTGTTTTGTTATATACATTTACGTTTTAAGAGGAGGAAT | 0.39
63 | CGACATGTCCCGCTTCTTTCATTAATCCGTTAGCAACTGTTTTGTTATATACATTTAGCTTTTAAGAGGAGGAAT | 0.257
64 | CGACATGTCCCGCTTCTTTCATTAATCCGTTAGCAACTGTTTTGTTATATACATTTATCTTTTAAGAGGAGGAAT | 0.458
65 | CGACATGTCCCGCTTCTTTCATTAATCCGTTAGCAACTGTTTTGTTATATATATTTACCTTTTAAGAGGAGGAAT | 0.298
66 | CGACATGTCCCGCTTCTTTCATTAATCCGTTAGCAACTGTTTTTATATATACATTTACCTTTTAAGAGGAGGAAT | 0.669
